Source: patent US20110207917A1

Target: SAM-6 Receptor (SAM-6/R) glycoprotein, about 80 kDa Grp78 variant of tumor cells (human) (UniProt P11021)
Test: FACS on BXPC-3 cells transfected with Grp78 siRNA

Chain of SAM-6 Receptor (SAM-6/R) glycoprotein, about 80 kDa Grp78 variant of tumor cells (human) (P11021 18-654, change not shown): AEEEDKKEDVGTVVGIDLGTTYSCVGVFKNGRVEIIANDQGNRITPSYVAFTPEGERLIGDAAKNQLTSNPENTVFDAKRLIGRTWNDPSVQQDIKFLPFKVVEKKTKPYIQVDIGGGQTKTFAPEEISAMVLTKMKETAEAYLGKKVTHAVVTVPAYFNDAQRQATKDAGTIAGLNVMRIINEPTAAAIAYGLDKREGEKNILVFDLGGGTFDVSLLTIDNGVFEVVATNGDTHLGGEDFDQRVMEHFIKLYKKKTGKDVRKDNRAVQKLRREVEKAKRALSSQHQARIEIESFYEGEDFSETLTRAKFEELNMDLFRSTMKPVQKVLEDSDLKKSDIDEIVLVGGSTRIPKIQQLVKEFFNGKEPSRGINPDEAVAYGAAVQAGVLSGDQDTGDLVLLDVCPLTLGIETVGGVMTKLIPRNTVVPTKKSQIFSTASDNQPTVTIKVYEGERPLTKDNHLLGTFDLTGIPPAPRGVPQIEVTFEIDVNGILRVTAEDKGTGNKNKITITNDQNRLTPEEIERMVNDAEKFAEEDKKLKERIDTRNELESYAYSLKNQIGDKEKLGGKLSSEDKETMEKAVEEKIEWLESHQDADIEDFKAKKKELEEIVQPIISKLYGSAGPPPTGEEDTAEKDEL

Substance: anti-GRP78 antibody clone ET-21 (Sigma)
- % reduction of binding after Grp78 siRNA transfection: 76%
